According to the supplement of paper PMC9170038:

Tested on: MS2 coat protein
Assay: apparent KD of MS2 coat protein; designed switch direction (-1 OFF switch, 1 ON switch): -1; higher = weaker reporter binding
Method in brief: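 Transcription of designed RNA switches on Illumina chips was done by stalled E. coli RNA polymerase. SNAP-549-labelled MS2 coat protein was then titrated in doubling steps from 0.7 or 1.5 nM to 3 µM, with steps of 0.8–1.5 h at the lowest and 10–20 min at the highest concentration. The per-design median over clusters of curve-fitted normalised fluorescence is reported as apparent KD.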

[1] = input ligand: microRNA oligo, concentration not stated
[2] = Eterna round: R95, input ligand: microRNA oligo, concentration not stated
[3] = Eterna round: R95, input ligand: FMN 200 uM
[4] = Eterna round: R95, input ligand: none

Sequence	apparent KD of MS2 coat protein (input ligand: FMN 200 uM) [nM]	apparent KD of MS2 coat protein [1] [nM]	apparent KD of MS2 coat protein (input ligand: none) [nM]	apparent KD of MS2 coat protein [2] [nM]	apparent KD of MS2 coat protein [3] [nM]	apparent KD of MS2 coat protein [4] [nM]
AGUAACUCAAGAGGAUAUCACAUGAGGAUCACCCAUGUAUAGCGCGCUACGCUAGUCCUCGUAUUUGAGAAGGUUUGAUAAAUG [Quve] (Eterna round: R96, puzzle: Exclusion NG 2)	10.4	11.4	14.3			
CCAUGUUAGCAGGAUAUGCUAUUAAUCUUUUAUGCAGAAGGGCUUACAUGAGGAUCACCCAUGUAUUAAGUCAA [JR_E6_Sub077] (puzzle: Exclusion 6)				13.2		
CUUUCGUGAGGAUAUCAGUAGUAAUAAAAUAAAAUUACUACUGAGAAGGCACAUGAGGAUCACCCAUGUUCCUC [salish99_ex3_r3_098] (puzzle: Exclusion 4)				23.5		
GGCAUCGGAGGAUAUACUUAUGGUGAUGUUCGAAGCUUUCUACUUGAGGAUCACCCAAGUAGAAGGCCGAUGCC [jl-ex2.4.78 ViennaUCT mod] (Eterna round: R97, puzzle: Exclusion 2)	5.28		17.4			
ACGGACGCAGGAUAUCGCACCGGAGACUUGAGGAUCACCCAAGUGGUUUUCCCUUCGCAACGAGAAGGGCGACCUA [Tiarle] (Eterna round: R97, puzzle: Exclusion 5)	55.7		35.2			
CUCCCACAUGAGGAUCACCCAUGUGAGGAUAUGGAGCGCGACCGCGCGGUCGCGUACACCAGAAGGCGCAUGAU [1st #81] (Eterna round: R97, puzzle: Exclusion 1)	24.1		21.1			
GGUCGUAGACAGGAUAUGCGGCAAAUAAAUAAAGCAGAAGGGUCUACUUGAGGAUCACCCAAGUGGGCGGUUAA [jl-ex6-4.18 ViennaUCT mod] (Eterna round: R97, puzzle: Exclusion 6)	103		17.7			
GGAUUUACUGAGGAUAUUGCAUCACCCGACUGAUAAGAAGGCAGAACAUGAGGAUCACCCAUGUGGGUAGUCAA [Bingo-Bango-3] (Eterna round: R97, puzzle: Exclusion 6)	29.6		19.5			
GCUCGCGGGCAAGGAUAUCCUACGCUGUUCUGGUUCGUGUCUGUUACAUGAGGAUCACCCAUGUGGGAGAAGGUGCACCAGGGU [Design 49] (Eterna round: R96, puzzle: Exclusion NG 2)	17.5	12.4	20.1			
GAUAGAGAGCAGGAUAUCUUGGGUAAGUAUCGUAGAGAAGGGCUCACAUGAGGAUCACCCAUGUGGUCCUAGAU [JL Dibiri mod 03] (puzzle: Exclusion 6)				11.5		
CGGGACGUCCUGAUAAUAAGACAUGAGGAUCACCCAUGUCGGCAGGAUAUCAGUCCUUACGGUUAUGAGAAGGGUCGGCAACCA [Quatis] (Eterna round: R96, puzzle: Exclusion NG 3)	10.9	9.05	11.6			
UUUUUUGUUGUGAGGAUAUCGUUGUUGUUGUGGAUCGAGAAGGCACAUGAGGAUCACCCAUGUUUGUUGUGGUU [JR_BMOE4_Sub086] (Eterna round: R96, puzzle: Brourd's mod of Exclusion 4)	272	81.2	109			
CCGUUAUGAGGAUAUCGCUUGAAAGACAUGAGGAUCACCCAUGUGGGCGCGUCCUCAUGGCGAGAAGGCAUUACGA [Enmaatama] (puzzle: Exclusion 5)				13.1	9.07	12.6
AAGAAACAUGAGGAUCACCCAUGUCAGGAUAUCUCGAAAAGCAUAGAAAUAUGCGAAGAGAGAAGGGACAAGAA [ChP Ext 10-04-2015] (puzzle: Exclusion 1)				56.1		
GAAAAGGUAGGAUAUACGGAAAAAAAGGGUAGAAAAAAAACACAUGAGGAUCACCCAUGUAGAAGGACCAAAAG [salish99_ex2_r3_030] (puzzle: Exclusion 2)				32.5	60.9	27.4
AGGUAACAUGAGGAUCACCCAUGUCAGGAUAUCAGUAAGAUUAGAAUAGAGUAGAGUAUGAGAAGGGACUAUAU [Excluse me! 20 - Jieux - Exclusion 1] (puzzle: Exclusion 1)				37.3	33.3	50

Sequence	apparent KD of MS2 coat protein (input ligand: FMN 200 uM) [nM]	apparent KD of MS2 coat protein [1] [nM]	apparent KD of MS2 coat protein (input ligand: none) [nM]	apparent KD of MS2 coat protein [2] [nM]	apparent KD of MS2 coat protein [3] [nM]	apparent KD of MS2 coat protein [4] [nM]
AGUGUGAGGCAGGAUAUGCUAUAUGUAAGUAAUGCAGAAGGGUCUACAUGAGGAUCACCCAUGUGUGCGGUUGA [Ex6 #9] (Eterna round: R97, puzzle: Exclusion 6)	797		116			
CAUUAUUAUCGAGGAUAUCCUAUUGUAAUACUGGGAGAAGGCGGACUCAACAUGAGGAUCACCCAUGUAAGACGGGUACUAGAU [Ex NG1 #22] (Eterna round: R96, puzzle: Exclusion NG 1)	228	139	163			
ACAUUACAUGAGGAUCACCCAUGUGAGGAUAUGGUGCGGUAGUGUCCUGUCGCGUACUCCAGAAGGCGCGGGUG [1st #46] (Eterna round: R97, puzzle: Exclusion 1)	174		194			
AAAAGGUGAGGAUAUGAGGCGCCGGGCCGGUUGGUGCGGAUUCAGAAGGCACAUGAGGAUCACCCAUGUAAUAA [Excls4-II] (puzzle: Exclusion 4)				38.7	52.2	50.4
UGGAGUAUGUAGGAUAUUCAGGCAAAGAAAGCCGAAGAAGGACAUACUUGAGGAUCACCCAAGUUGUCCAAAAU [Zaanatatri] (Eterna round: R97, puzzle: Exclusion 6)	25.8		15.1			
GAGGAGCAAGGAUAUACGAGGAUAGGGAAGGUUGGAGAGUGACAUGAGGAUCACCCAUGUAGAAGGUGCAAGGG [JR_Exclu2_Sub095] (puzzle: Exclusion 2)				108		
CAUUCCUAGCGAGGAUAUCAGUAAAAGGGAAGCUGAGAAGGCGCAAACAUGAGGAUCACCCAUGUCACACGCGGGUAGUUUUCC [Uslazaxe] (Eterna round: R96, puzzle: Exclusion NG 1)	16.2	10.8	14.3			
GUUUACAAGCUAAGAUCCUACAUGAGGAUCACCCAUGUGGUCCGGUGACGUGAGUCACCGGACUUAGCUCGUCUUGA [salish99_S_TOV1_R5_092] (Eterna round: R97, puzzle: Sensor, turn-off variant 1)	32.4		31			
UCACGGGAUUGAGGAUAUAUUUAAAUUUUUACAAUAGAAGGCAAAUUUUUAGUUUUUUCACUUUACAUGAGGAUCACCCAUGUU [JR_ExcBG1_Sub082] (Eterna round: R96, puzzle: Exclusion NG 1)		19.6				
AUCGUGCAGCUUUGCUGUACGAGUACAUGAGGAUCACCCAUGUAGGAUAUGGUACGCUUUGCGUGCUAGAAGGAUAUGAGAUUA [EX ENG3 1.48] (Eterna round: R96, puzzle: Exclusion NG 3)	40.2	28.5	31			
CUGUAAAGGAAGGAUAUGCUAGACGAAAGUCUAGCAGAAGGUCCUACAUGAGGAUCACCCAUGUGGCCUCACAG [Mat - Exclusion 6 - Eli Mod - D50] (Eterna round: R97, puzzle: Exclusion 6)	1500		274			
ACAAGCUCUGUGGGUGGUGACAUGAGGAUCACCCAUGUUUUGCUCGUCUUGUCCCGGGCCCGGCGCCCGGGCCCGGG [-40.4, -69.3, A 12%] (Eterna round: R97, puzzle: Sensor, turn-off variant 1)	625		1340			
CCGGCAUGAGGAUAUCCAUCUGGAUCAGACUAGAUCCUGAUGGAGAAGGCACAUGAGGAUCACCCAUGUUACGG [Eli 4x 4.38] (Eterna round: R97, puzzle: Exclusion 4)	51.2		173			
AUUAAUGUCAAAGGAUAUCAGCACGUGUAGUGCUGAGAAGGUUGAACAUGAGGAUCACCCAUGUAGAUCAUUAAUAAUUUAAUU [ENG1/10-B3] (Eterna round: R96, puzzle: Exclusion NG 1)	25.5	14.5	20.6			
CCAUCACAUGAGGAUCACCCAUGUUAGGAUAUCAUUAGCCUCGGAGCUAUAGCGAGGUUGAGAAGGGACAUGUC [Eternabot (L1) Solution 87] (Eterna round: R97, puzzle: Exclusion 1)	19.9		22.7			
AAUAACAAGCCGAUCCUAAACAUGAGGAUCACCCAUGUGCUCGUCUUGUAAAGUACUAUCACGAAAGUGAUAGUACA (Eterna round: R97, puzzle: Sensor, turn-off variant 1)	24.5		18			
